This is an account of results in paper PMC4618406.

The nature of data set [1]: ThT fluorescence of gT72/unmodified mixtures, 50 μM total. Particulars: glycan gained, control: unmodified α-synuclein.
The nature of data set [2]: TEM of fibers from mixtures. Particulars: glycan gained; control: unmodified α-synuclein, 50 μM.

For the substance α-synuclein: 25% α-synuclein(gT72), in data set [1], the “other: fibril aggregation” value is on record as “decreases”.
With α-synuclein: 50% α-synuclein(gT72), the “other: fibril aggregation” value in data set [1] was “decreases”.
On the same count and under the same terms, for α-synuclein: 10% α-synuclein(gT72) the value was “decreases”.
Take “α-synuclein: 10-50% α-synuclein(gT72) mixtures”: the structure_or_conformation entry in data set [2] is on record as “no change”.
